Source: paper PMC2801713 (Molecular Biology of the Cell, 2010)

Target: GFP-WIP (wild type) (human, UniProt O43516 1-503)
Experiment: far-Western, overlay or dot blot

Chain of GFP-WIP (wild type) (O43516 whole entry): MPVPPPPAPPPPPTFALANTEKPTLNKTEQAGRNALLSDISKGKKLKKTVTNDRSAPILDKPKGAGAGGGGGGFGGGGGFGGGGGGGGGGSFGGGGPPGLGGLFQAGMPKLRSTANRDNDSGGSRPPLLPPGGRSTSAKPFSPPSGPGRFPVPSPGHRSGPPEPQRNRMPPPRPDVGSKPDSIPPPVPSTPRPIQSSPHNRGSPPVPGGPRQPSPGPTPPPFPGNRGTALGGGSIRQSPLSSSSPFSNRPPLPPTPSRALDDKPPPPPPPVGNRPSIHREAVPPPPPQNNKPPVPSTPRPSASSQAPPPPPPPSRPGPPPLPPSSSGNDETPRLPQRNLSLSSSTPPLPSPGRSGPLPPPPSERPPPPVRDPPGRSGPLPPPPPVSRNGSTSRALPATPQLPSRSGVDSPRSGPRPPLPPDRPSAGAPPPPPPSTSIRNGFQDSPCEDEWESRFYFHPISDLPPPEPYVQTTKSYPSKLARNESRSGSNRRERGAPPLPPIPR

binding result: binds
B1: His-mAbp1-GST (natural protein, mouse, UniProt Q62418 1-436, looked up)
chain: MAVNLSRNGPALQEAYVRVVTEKSPTDWALFTYEGNSNDIRVAGTGEGGLEELVEELNSGKVMYAFCRVKDPNSGLPKFVLINWTGEGVNDVRKGACANHVSTMANFLKGAHVTINARAEEDVEPECIMEKVAKASGANYSFHKESTSFQDVGPQAPVGSVYQKTNAISEIKRVGKDNFWAKAEKEEENRRLEEKRRAEEERQRLEEERRERELQEAARREQRYQEQHRSAGAPSPSSRTGEPEQEAVSRTRQEWESAGQQAPHPREIFKQKERAMSTTSVTSSQPGKLRSPFLQKQLTQPETSYGREPTAPVSRPAAGVCEEPAPSTLSSAQTEEEPTYEVPPEQDTLYEEPPLVQQQGAGSEHIDNYMQSQGFSGQGLCARALYDYQAADDTEISFDPENLITGIEVIDEGWWRGYGPDGHFGMFPANYVELIE
